In patent publication US20260092124A1 (published 2026):

Biological target: human CD40 (human, UniProt P25942 21-277)
Assay: cell binding (GpL luciferase, HT1080-CD40); single representative experiment

Sequence of human CD40 (P25942 21-277): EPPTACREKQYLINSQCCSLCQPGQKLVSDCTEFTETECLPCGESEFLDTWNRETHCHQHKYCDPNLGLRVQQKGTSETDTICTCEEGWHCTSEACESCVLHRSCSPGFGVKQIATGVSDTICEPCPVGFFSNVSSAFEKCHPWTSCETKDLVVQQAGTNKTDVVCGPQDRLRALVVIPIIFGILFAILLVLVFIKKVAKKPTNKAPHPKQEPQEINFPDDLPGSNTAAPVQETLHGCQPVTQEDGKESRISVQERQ

B1: GpL-CD40L, a fusion protein of soluble CD40L and Gaussia princeps luciferase (GpL) (ligand)
chain: GDQNPQIAAHVISEASSKTTSVLQWAEKGYYTMSNNLVTLENGKQLTVKRQGLYYIYAQVTFCSNREASSQAPFIASLCLKSPGRFERILLRAANTHSSAKPCGQQSIHLGGVFELQPGASVFVNVTDPSQVSHGTGFTSFGLLKL
For B1, the Kd was 0.14 µg/mL.
